The experiment has as its target T1, Src protein (p60^src), in vitro translated (UniProt P12931 2-536, limits assumed).
T1 construct: also called c-Src
Nature of the experiment: in vitro translated Src on Rb-GST fusion proteins; data not shown. The procedure:
The same procedure was followed for Rb in vitro binding assays, except that the Rb-GST fusion proteins were incubated in the in vitro translated forms of Rak in NP-40 buffer containing 0.5% fraction V bovine serum albumin (Boehringer Mannheim). After three washes with the same buffer, bound proteins were analyzed by SDS-PAGE and detected by autoradiography. Rak was in vitro translated using the TnT-coupled transcription/translation system (Promega) with 2 ug of the pAlt-Rak plasmid. The Rak (1–152) construct was prepared by digesting the pAlt-Rak plasmid with EcoRI to obtain the 5' EcoRI fragment of Rak.
An in vitro binding reaction was then used to further identify the essential components for the Rak-Rb interaction. In vitro translated Rak was incubated with two Rb-GST fusion proteins, where one encoded amino acids 379–928, spanning the A/B pocket and carboxy-terminus (RbABC), while the other fusion protein encoded amino acids 780–928, and represented only the carboxy-terminus (RbC). The in vitro translated full-length Rak protein bound efficiently to the RbABC fusion protein, and approximately 5-fold less to the RbC protein (FIG. 5B, upper panel). […] As a control, the Src protein was in vitro translated and subjected to the same binding reaction, and no binding of Src to any portion of Rb was detected (data not shown).

B1: GST-RbABC, Rb fusion protein encoding amino acids 379-928 (A/B pocket region and COOH-terminal domain) (other, UniProt P06400 379-928, looked up)
chain: MNTIQQLMMILNSASDQPSENLISYFNNCTVNPKESILKRVKDIGYIFKEKFAKAVGQGCVEIGSQRYKLGVRLYYRVMESMLKSEEERLSIQNFSKLLNDNIFHMSLLACALEVVMATYSRSTSQNLDSGTDLSFPWILNVLNLKAFDFYKVIESFIKAEGNLTREMIKHLERCEHRIMESLAWLSDSPLFDLIKQSKDREGPTDHLESACPLNLPLQNNHTAADMYLSPVRSPKKKGSTTRVNSTANAETQATSAFQTQKPLKSTSLSLFYKKVYRLAYLRLNTLCERLLSEHPELEHIIWTLFQHTLQNEYELMRDRHLDQIMMCSMYGICKVKNIDLKFKIIVTAYKDLPHAVQETFKRVLIKEEEYDSIIVFYNSVFMQRLKTNILQYASTRPPTLSPIPHIPRSPYKFPSSPLRIPGGNIYISPLKSPYKISEGLPTPTKMTPRSRILVSIGESFGTSEKFQKINQMVCNSDRVLKRSAEGSNPPKPLKKLRFDIEGSDEADGSKHLPGESKFQQKLAEMTSTRTRMQKQKMNDSMDTSNKEEK
notes: range 379-928; GST fusion prepared like the Rak fusions; also called RbABC fusion protein; Rb-GST fusion protein; not shown: Glutathione S-transferase encoded by the pGEX-4T plasmid (Pharmacia)
For B1, the binding result was “no binding”.

B2: GST-RbC, Rb fusion protein encoding amino acids 780-928 (COOH-terminal domain only) (other, UniProt P06400 780-928, looked up)
chain: SPIPHIPRSPYKFPSSPLRIPGGNIYISPLKSPYKISEGLPTPTKMTPRSRILVSIGESFGTSEKFQKINQMVCNSDRVLKRSAEGSNPPKPLKKLRFDIEGSDEADGSKHLPGESKFQQKLAEMTSTRTRMQKQKMNDSMDTSNKEEK
notes: range 780-928; GST fusion prepared like the Rak fusions; also called RbC protein; Rb-GST fusion protein; not shown: Glutathione S-transferase encoded by the pGEX-4T plasmid (Pharmacia)
On to B2, for which the binding result is “no binding”.

These data come from patent US6531296 (UNIVERSITY OF NORTH CAROLINA AT CHAPEL HILL, dated 2003).
